Results reported in patent US20260250378A1 (AGENCY FOR SCIENCE TECHNOLOGY AND RESEARCH, published 2026).
Several values for one entry are separate records, joined by “and”; a condition that tells them apart may be missing. Identical values can stand only once.

T1: CNX-his antigen (Genscript) (human, UniProt P27824 21-481, limits assumed)
T1 construct: also called human CNX-His; recombinant CNX-histidine tag
T1 sequence (looked up): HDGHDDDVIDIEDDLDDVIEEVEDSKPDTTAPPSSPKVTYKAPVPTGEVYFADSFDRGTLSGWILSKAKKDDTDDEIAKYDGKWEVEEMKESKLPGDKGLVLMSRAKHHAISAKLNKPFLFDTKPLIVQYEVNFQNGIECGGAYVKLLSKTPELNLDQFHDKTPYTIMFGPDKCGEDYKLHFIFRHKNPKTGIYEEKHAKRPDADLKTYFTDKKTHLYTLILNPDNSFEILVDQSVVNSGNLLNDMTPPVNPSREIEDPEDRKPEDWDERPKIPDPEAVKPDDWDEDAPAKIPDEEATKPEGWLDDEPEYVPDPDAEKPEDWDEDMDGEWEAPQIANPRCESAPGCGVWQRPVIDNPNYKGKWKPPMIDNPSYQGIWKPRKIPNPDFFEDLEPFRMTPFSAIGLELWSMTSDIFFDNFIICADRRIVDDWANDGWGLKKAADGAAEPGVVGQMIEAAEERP

T2: Recombinant human CANX protein fused with the Fc region of human IgG1 at the C-terminus (HuCANX_hFc) (human, UniProt P27824 21-481, limits assumed, biotinylated in the ELISAs)
T2 construct: also called biotinylated HuCANX with a human Fc tag; not shown: Fc region of human IgG1 at the C-terminus
T2 sequence (looked up): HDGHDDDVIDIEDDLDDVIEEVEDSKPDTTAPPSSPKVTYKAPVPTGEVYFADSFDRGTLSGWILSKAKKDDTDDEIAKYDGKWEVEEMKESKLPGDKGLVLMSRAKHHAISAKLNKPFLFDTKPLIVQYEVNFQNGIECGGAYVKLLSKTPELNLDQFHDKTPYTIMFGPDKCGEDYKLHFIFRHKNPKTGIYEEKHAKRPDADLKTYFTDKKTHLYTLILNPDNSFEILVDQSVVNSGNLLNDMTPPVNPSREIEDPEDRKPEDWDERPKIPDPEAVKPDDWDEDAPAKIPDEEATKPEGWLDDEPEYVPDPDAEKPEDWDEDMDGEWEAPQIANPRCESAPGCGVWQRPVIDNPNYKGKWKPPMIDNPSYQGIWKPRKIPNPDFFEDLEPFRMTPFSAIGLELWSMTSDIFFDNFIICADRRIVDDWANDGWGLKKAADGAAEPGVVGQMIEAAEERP

T3: MsCANX_His (mouse, UniProt P35564)
T3 construct: recombinant, C-terminal polyhistidine tag; also called recombinant mouse CANX protein with a polyhistidine tag at the C-terminus
T3 sequence (antigen, looked up): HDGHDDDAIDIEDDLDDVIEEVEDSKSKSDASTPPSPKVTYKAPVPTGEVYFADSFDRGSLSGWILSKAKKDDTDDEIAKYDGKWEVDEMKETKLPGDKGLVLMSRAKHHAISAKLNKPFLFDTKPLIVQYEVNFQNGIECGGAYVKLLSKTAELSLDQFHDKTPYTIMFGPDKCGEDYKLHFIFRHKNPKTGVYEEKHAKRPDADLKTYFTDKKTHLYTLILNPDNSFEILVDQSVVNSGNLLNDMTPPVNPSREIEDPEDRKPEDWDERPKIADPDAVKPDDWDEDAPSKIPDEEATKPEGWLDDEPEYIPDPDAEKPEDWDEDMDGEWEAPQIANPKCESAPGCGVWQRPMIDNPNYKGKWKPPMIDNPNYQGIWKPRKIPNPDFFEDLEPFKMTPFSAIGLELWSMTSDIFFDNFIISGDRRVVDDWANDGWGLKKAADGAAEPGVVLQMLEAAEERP

T4: CRT in cell extracts (HeLa; MDA-231) (human, UniProt P27797 18-417)
T4 construct: Denatured endogenous protein in western blots; also called calreticulin
T4 sequence (looked up): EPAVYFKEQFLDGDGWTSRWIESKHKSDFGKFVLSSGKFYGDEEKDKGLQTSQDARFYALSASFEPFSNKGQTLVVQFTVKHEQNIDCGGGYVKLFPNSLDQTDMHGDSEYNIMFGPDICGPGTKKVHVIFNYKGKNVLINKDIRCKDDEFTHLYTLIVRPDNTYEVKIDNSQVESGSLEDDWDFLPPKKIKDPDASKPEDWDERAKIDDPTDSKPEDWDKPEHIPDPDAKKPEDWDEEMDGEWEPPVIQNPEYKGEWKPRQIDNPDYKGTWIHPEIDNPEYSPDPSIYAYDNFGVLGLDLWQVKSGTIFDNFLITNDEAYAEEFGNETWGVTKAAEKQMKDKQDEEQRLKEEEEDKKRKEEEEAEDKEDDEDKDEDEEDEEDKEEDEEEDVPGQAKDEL

T5: recombinant human CNX protein with a polyhistidine tag at the C-terminus (HuCANX_His) (human, UniProt P27824 21-481, limits assumed)
T5 construct: also called HuCANX with a His tag
T5 sequence (looked up): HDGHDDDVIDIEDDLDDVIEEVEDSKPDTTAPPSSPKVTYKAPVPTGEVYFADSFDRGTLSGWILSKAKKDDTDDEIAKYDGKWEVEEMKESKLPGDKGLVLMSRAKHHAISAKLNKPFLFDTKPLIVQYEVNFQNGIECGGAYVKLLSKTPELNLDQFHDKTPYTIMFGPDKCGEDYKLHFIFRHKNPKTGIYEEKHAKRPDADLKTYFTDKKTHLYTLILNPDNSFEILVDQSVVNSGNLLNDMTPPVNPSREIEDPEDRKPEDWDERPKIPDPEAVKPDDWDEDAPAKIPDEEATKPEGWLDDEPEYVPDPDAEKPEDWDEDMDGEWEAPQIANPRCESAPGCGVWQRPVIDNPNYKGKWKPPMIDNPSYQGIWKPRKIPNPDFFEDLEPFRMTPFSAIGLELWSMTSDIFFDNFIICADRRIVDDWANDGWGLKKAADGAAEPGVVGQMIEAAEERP


Legend:
[1] = molecular target: T1, CNX-his antigen (Genscript); experiment: ELISA with serial dilutions of the antibody on coated His-tagged human CNX
[2] = molecular target: T1, CNX-his antigen (Genscript); experiment: ELISA, His-tagged human CNX coated, serial dilutions of antibody
BSA = molecular target: T6, BSA (UniProt P02769 25-607); experiment: ELISA, BSA-coated control wells
T6 construct: Control coating in ELISAs; also called bovine serum albumin

[3] = molecular target: T2, Recombinant human CANX protein fused …; experiment: ELISA, IgG1 coated 2 ug/ml, biotinylated antigen titrated (EC50 is of the antigen), streptavidin-HRP
Description: The 15 antibody clones were tested using ELISA against biotinylated recombinant HuCANX_hFc protein to assess binding avidity for the target, with an irrelevant IgG1 used as a negative control antibody. In brief, the 15 antibody clones were coated at 2 μg/ml onto the 96-well ELISA plates overnight at 4° C. After blocking with casein for 2 hours, the biotinylated antigen was added at different concentrations (3 times serial dilutions) and incubated for 1 hour. The wells were then washed with PBST and detected by HRP conjugated streptavidin. […] antibody clones were also tested in ELISA against recombinant HuCANX_His protein to assess binding affinity for the target, with an irrelevant IgG1 used as a negative control antibody. In brief, the 15 antibody clones were coated at 10 nM onto the 96-well ELISA plates overnight at 4° C. After blocking with casein for 2 hours, the antigen was added at different concentrations (3 times serial dilutions) and incubated for 1 hour. The wells were then washed with PBST and detected by HRP conjugated anti-His tag antibody.

[4] = molecular target: T1, CNX-his antigen (Genscript); experiment: ELISA, CNX-his coated, antibody titrated, HRP secondary, 4-parameter fit; printed in grey: Curve did not plateau in ELISA
Description: (§1) CNX-his antigen (Genscript) was diluted in bicarbonate/carbonate antigen coating buffer (100 mM NaHCO₃) and coated on maxisorp microplates shaking overnight at 4 C. […] The wells were washed 3 times with PBST before the addition of antibodies at several indicated dilution in 2% BSA-PBST and incubated for 1 hour at 37 C. The wells were washed 3 times with PBST. The specific anti-human secondary antibody conjugated with horseradish peroxidase was diluted and added to wells with a subsequent incubation for 1 hour at 37° C. Then wells were washed 3 times with PBST. Addition of TMB solution was performed and incubated at room temperature for 30 mins or until desired color change was attained. Addition of 0.1 M HCL to stop reaction was then added and measurement of absorbance at 450 nm on a microplate reader was then followed. […] CNX ab10286 (abcam) and a human Igg1 unrelated were used as positive and negative control respectively. 4 parameters logistic curve fit were used to calculate EC50.

MsCANX_His = molecular target: T3, MsCANX_His; experiment: BLI, IgG1 on AHC biosensor, MsCANX_His 200-0.39 nM
Description: The binding affinity of the 15 antibody clones to recombinant mouse CANX protein with a polyhistidine tag at the C-terminus (MsCANX_His) was measured by Bio-Layer Interferometry. The 15 antibody clones were loaded and captured by the anti-human IgG Fc capture (AHC) biosensors (FIG. 6). The biosensors were dipped into a range of MsCANX_His protein concentrations (from 200 nM to 0.39 nM, in 2-fold dilutions), the kinetics of the association and dissociation were then recorded.

[5] = molecular target: T7, CNX-mcherry fluorescent protein expressed in Huh7 cells; experiment: immunofluorescence, Huh7 CNX-mcherry cells minus plain Huh7 cells, anti-human Alexa 647
T7 construct: Target of immunofluorescence staining inside transfected Huh7 cells
Text: A secondary anti-human antibody conjugated to Alexa fluorophore 647 was used. […] The signal obtained from normal Huh7 without CNX mCherry was used to normalize the signal obtained with Huh7 CNX-mcherry. […] Thus, these specific antibodies could detect CNX overexpression in CNX mCherry cells in immunofluorescence application settings.

[6] = molecular target: T4, CRT in cell extracts (HeLa; MDA-231); experiment: immunoblot of HeLa extracts (WT, CNX KD, CRT KD), anti-human HRP
Description: All Fabs converted to IgG1 were tested for western blotting detection using Hela extract from cells untreated or subjected to 72H knock down with an siRNA against CNX or CRT (CRT). After SDS-PAGE and transfer to nitrocellulose membranes, membranes were blocked with BSA and incubated with 1 μg/ml antibody solution overnight, following multiple washes, an anti-human HRP secondary antibody was used for detection of tested antibodies.

[7] = molecular target: T5, recombinant human CNX protein with a …; experiment: BLI, IgG1 on AHC biosensor, HuCANX_His 200-3.13 nM
Description: The 5 antibody clones were loaded and captured by the anti-human IgG Fc capture (AHC) biosensors. The biosensors were dipped into a range of HuCANX_His protein concentrations (from 200 nM to 3.13 nM, in 2-fold dilutions), the kinetics of the association and dissociation were then recorded.

[8] = molecular target: T1, CNX-his antigen (Genscript); experiment: ELISA, CNX-his coated, antibody titrated, anti-human-HRP
[9] = molecular target: T1, CNX-his antigen (Genscript); experiment: ELISA, CNX-his coated, antibody titrated, HRP secondary, 4-parameter fit
Description: as §1

[10] = molecular target: T4, CRT in cell extracts (HeLa; MDA-231); experiment: western blot, extracts of MDA-231 and MDA-231 CNX-/- cells

T7 sequence (P27824 whole entry): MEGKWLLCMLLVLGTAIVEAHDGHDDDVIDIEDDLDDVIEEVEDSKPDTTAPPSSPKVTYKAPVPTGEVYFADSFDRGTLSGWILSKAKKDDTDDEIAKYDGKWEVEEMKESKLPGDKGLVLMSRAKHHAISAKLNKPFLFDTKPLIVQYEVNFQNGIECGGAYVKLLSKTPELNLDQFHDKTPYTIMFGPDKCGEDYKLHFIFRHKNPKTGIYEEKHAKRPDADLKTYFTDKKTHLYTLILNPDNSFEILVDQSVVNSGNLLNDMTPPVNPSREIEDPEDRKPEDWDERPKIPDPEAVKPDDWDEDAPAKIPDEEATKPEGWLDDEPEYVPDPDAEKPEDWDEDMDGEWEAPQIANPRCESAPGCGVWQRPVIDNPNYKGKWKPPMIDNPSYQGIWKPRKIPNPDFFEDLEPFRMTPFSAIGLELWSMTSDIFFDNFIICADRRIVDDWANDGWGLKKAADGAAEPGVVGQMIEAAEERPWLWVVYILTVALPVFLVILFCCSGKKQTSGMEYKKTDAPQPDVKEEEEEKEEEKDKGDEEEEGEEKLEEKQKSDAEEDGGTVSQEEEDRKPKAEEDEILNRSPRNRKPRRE
T6 sequence (P02769 25-607 limits assumed): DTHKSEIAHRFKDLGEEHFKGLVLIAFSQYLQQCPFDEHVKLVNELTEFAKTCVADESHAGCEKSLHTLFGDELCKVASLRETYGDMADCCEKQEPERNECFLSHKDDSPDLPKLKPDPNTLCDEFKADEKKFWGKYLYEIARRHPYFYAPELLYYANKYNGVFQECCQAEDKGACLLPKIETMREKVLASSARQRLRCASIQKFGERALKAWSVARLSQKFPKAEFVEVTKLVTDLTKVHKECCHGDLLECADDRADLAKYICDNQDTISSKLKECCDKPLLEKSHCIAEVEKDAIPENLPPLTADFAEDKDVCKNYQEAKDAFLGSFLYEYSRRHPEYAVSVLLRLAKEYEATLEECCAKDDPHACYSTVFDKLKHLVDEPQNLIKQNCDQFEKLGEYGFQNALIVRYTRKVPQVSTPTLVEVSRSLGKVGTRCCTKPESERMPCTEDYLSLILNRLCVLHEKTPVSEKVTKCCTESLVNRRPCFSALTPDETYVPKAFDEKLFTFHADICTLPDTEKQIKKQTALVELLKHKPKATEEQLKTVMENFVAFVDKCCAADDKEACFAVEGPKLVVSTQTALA

| EC50 (read off the curve) [1] [ng/mL] | EC50 [2] [ng/mL] | EC50 [3] [nM] | EC50 [4] [ng/mL] | Kd (MsCANX_His) [nM] | koff (MsCANX_His) [s⁻¹] | kon (MsCANX_His) [M⁻¹ s⁻¹] | Intensity (CNX+ cells - CNX -ve) [5] | binding result [6] | Kd [7] [nM] | koff [7] [s⁻¹] | kon [7] [M⁻¹ s⁻¹] | EC50 [8] [nM] | EC50 [9] | binding result [10] | Binder | binding result (BSA) |
| --- | --- | --- | --- | --- | --- | --- | --- | --- | --- | --- | --- | --- | --- | --- | --- | --- |
| ~3 | ~0.0031 | – | – | – | – | – | – | – | – | – | – | – | – | – | monoclonal anti-CNX antibody clone 2G9 (antibody, V domains shown, also called 2GP) VH: QVTLKESGGGVVQPGRSLRLSCAASGFTFSSYGMHWVRQAPGKGLEWVAVISYDGSNKYYADSVKGRFTISRDNSKNTLYLQMNSLRAEDTAVYYCTQGRDYWGQGTLVTVSS VL: QAVLTQPSSLSASPGASASLTCTLRSGINVGTYRIYWYQQKPGSPPQYLLRYKSDSDKQQGSGVPSRFSGSKDASANAGILLISGLQSEDEADYYCMIWHSSAWVFGGGTKLTVL | no binding (tested: 10 ug/ml (concentration from the text)) |
| – | – | 2.14 | 8490 | 5.8 | 0.00111 | 192000 | 945 | no binding (tested: 1 ug/ml) | – | – | – | – | – | – | 5E8 IgG1 (antibody) heavy: not shown light: DIQLTQSPSSLSASVGDRVTITCRASQSISTYINWYQQKPGKAPKLLIYFASSLQSGVPSRFSGGGSGTDFTLTISSLQPEDFATYYCQQSYNIPVTFGQGTKVEVTRTVAAPSIFIFPPSDEQLKSGTASVVCLLNNFYPREAKVQWKVDNALQSGNSQESVTEQDSKDSTYSLSSTLTLSKADYEKHKVYACEVTHQGLSSPVTKSFNRGEC | – |
| – | – | – | – | – | – | – | 3140 | – | 5.56 | 0.000225 | 40400 | > 0.1 | 0.0643 µg/mL and 0.43 nM | binds | C008 IgG1 (antibody, V domains shown, scFv clone 8 converted to human IgG1 (pFUSEss-CHIg-hG1 and pFUSE2ss-CLIg-hl2); also called IgG1 clone 8; Igg clone 8) VH: QVQLVQSGGGVVQPGRSLRLSCAASGFTVSSNYMSWVRQAPGKGLEWVSVIYSGGSTYYADSVKGRFTISRDNSKNTLYLQMNSLRAEDTAVYYCARGSRAVAGAFDYWGQGTLVTVSS VL: YSELTQDPAVSVALGQTVRITCQGDSLRTYYANWYQQKPGQAPVLVMYAKNHRPSGIPDRFSGSSSGNTASLTITGAQAEDEADYYCGSRDSSGNHPVFGGGTKVTVLG | – |
